“Also recorded” adds a separate entry of the source. Ends that are not written are not given here.
How the values were obtained:
[1] = biological target: T1, phospholipase C-β2 (PLC-β2) (Homo sapiens, UniProt Q00722); assay: PLC assay, [3H]PIP2 hydrolysis by recombinant PLC-β2; format: biochemical; conditions: for stimulation of PLC-β2 activity by peptide itself (in words): basal, no Gβγ unless stated, short peptides at 100 μM; for affinity of PLC-β2 stimulation compared with parent or comparator peptide (in words) / maximal stimulation / efficacy on PLC-β2 (in words): concentration-effect curves; for effect on Gβγ stimulation of PLC-β2 (in words): Gβγ 100 nM
T1 construct: made in house; host or cells: High 5 insect cells (baculovirus); cytosolic fraction used, not purified
Procedure: Recombinant PLC-β2 was expressed in High 5 cells by infection with recombinant baculovirus. Three to four days after infection, the cells were lysed by par bombing to 600 psi. The lysate was then centrifuged, and the cytosolic fraction was collected. Approximately 10-15 μg of cytosolic fraction was used per 100 μl reaction volume. Phospholipid substrate is a mixture of [3H]PIP2 and unlabeled phospholipids. Unlabeled phospholipids, from Sigma (P-6023), are crude phospholipids from bovine brain. The total diphosphoinositide and triphosphoinositide content is 20-40%. The remainder is a mixture of phosphotidylinositol and phosphotidylserine. Phospholipids are sonicated in 10 mM Hepes pH 7.0 to form micelles. A total of 0.01 μCi of [3H]PIP2, corresponding to approximately 7000 cpm, and 5 μg of unlabeled mixed phospholipids are used per reaction.
The PLC assay was performed as previously described (De Vivo, 1994, Meth. Enzymol. 238, 131). Briefly, substrate, PLC-β2, peptide, and Gβγ subunits are mixed on ice in a 100 μl volume buffer containing 10 mM Hepes pH 7.0, 1 mM DTT, 100 mM KCl, 10 mM NaCl, 2 mM EGTA, 1 mM EDTA, and 1 mM MgCl2. Reactions are started by the addition of 25 μl 5 mM CaCl2 and incubated at 32 degrees C. for 15 minutes. Reactions are stopped by the addition of 1 ml CMH (chloroform:methanol:H2O=100:100:1 by volume) and 250 μl 10 mM EDTA. After extraction, 400 μl aqueous phase is counted using a Beckman scintillation counter. All experiments were repeated at least thrice with very similar results. For concentration-effect curves, typical experiments are shown.

[2] = biological target: T2, adenylyl cyclase 2 (AC2) (Rattus norvegicus, UniProt P26769); assay: Adenylyl cyclase assay, recombinant AC2 in Sf9 cell membranes; format: biochemical; conditions: αs* 2 nM plus Gβγ 50 nM; TTN at 100 μM
T2 construct: made in house; host or cells: Sf9 cells (baculovirus); membranes used
From the text: (§1) Expression of G-Protein Subunits And Adenylyl Cyclases. Gβγ was purified from bovine brain (Dingus et al., 1994, Meth. Enzymol. 237, 457-471). Q227L-Gαs was expressed in rabbit reticulocyte lysates. AC2 was expressed in Sf9 cells by infection with recombinant baculovirus (Jacobowitz and Iyengar, 1994, Proc. Natl. Acad. Sci. U.S.A. 91, 10630-10634). AC2 assays have been described (Chen et al., 1995, Science 268, 1166-1169). Bovine AC1 (Jacobowitz et al., 1993, J. Biol. Chem. 268, 3829-3832) was epitope tagged at the N terminus with the FLAG epitope (Jacobowitz and Iyengar, 1994, Proc. Natl. Acad. Sci. U.S.A. 91, 10630-10634) and expressed in Sf9 cells by baculovirus infection.
Adenylyl Cyclase Assays. AC2 assays have been described (Chen et al., 1995, Science 268, 1166-1169). When required the peptides were mixed with adenylyl cyclase containing membranes and held on ice for 10 min prior to assays. Approximately 1-4 μg of AC2 Sf9 cell membranes per assay tube was used. All assays contained a mixture of protease inhibitors. The final concentration of each inhibitor was leupeptin at 3.2 μg/ml, aprotinin at 2 μg/ml, phenanthroline at 1.0 mM, and phenylmethylsulfonyl fluoride at 1.0 mM. To study Gβγ inhibition, AC1-containing Sf9 cell membranes (1-4 μg per assay tube) was used. […]

[3] = biological target: T3, adenylyl cyclase 1 (AC1) (Bos taurus, UniProt P19754); assay: Adenylyl cyclase assay, recombinant AC1 in Sf9 cell membranes; format: biochemical, bovine; conditions: for inhibition of Ca2+/CaM-stimulated AC1 activity by peptide alone (in words): CaM 100 nM; for blockade of Gβγ inhibition of Ca2+/CaM-stimulated AC1: CaM 100 nM plus Gβγ 30 nM
T3 construct: made in house; host or cells: Sf9 cells (baculovirus); membranes used
From the text: as §1
Adenylyl Cyclase Assays. AC2 assays have been described (Chen et al., 1995, Science 268, 1166-1169). When required the peptides were mixed with adenylyl cyclase containing membranes and held on ice for 10 min prior to assays. Approximately 1-4 μg of AC2 Sf9 cell membranes per assay tube was used. All assays contained a mixture of protease inhibitors. The final concentration of each inhibitor was leupeptin at 3.2 μg/ml, aprotinin at 2 μg/ml, phenanthroline at 1.0 mM, and phenylmethylsulfonyl fluoride at 1.0 mM. To study Gβγ inhibition, AC1-containing Sf9 cell membranes (1-4 μg per assay tube) was used. In these assays, in addition to the other standard reagents, the assay mixture contained either 1 mM EGTA or 50 μM CaCl2 plus 100 nM calmodulin (CaM). All experiments were repeated two or more times with qualitatively similar results. Typical experiments are shown. Values are mean±SD of triplicate determinations.

[4] = biological target: T4, PLC-β2 (Homo sapiens, UniProt Q00722); assay: Fluorescent resonance energy transfer binding of DABMI-labeled peptide to Cascade Blue-labeled PLC-β2; conditions: FRET
T4 construct: made in house; host or cells: Sf9 cells; purified as in Runnel et al. 1996
Procedure: For fluorescent resonance energy transfer experiments, recombinant PLC-β2 was expressed in Sf9 cells and purified as described (Runnel et al., 1996, Biochem. 35, 16824) and labeled with the amine-reactive probe, Cascade Blue acetyl azide (Molecular Probes, Eugene Oreg.) by raising the pH to 8.0 and adding a 4-fold excess of probe from a freshly prepared concentrated DMF solution. The reaction was kept on ice for 30 minutes before extensive dialysis in a solution comprising 20 mM Hepes, 0.16 M NaCl, 1 mM DTT, pH 7.2 to remove excess probe. Peptides were labeled with DABMI (4-dimethyl-5aminophenylazophenyl-4′-maleimeide) using an equimolar amount of dye in the absence of reducing agents. The reaction was allowed to proceed for 30 minutes at room temperature before quenching with 5 mM DTT. The final labeling ratios, as determined by absorption, were 1:1 for CB-PLC-β2 and 0.8 for the two DABMI-peptides. Fluorescence spectra were taken on an ISS-PCL (ISS Champaign, Ill.) photon counting spectrofluorometer using a 3×3 mm cuvette and exciting at 380 nm and scanning from 400-560 nm.

T3 sequence (P19754 whole entry): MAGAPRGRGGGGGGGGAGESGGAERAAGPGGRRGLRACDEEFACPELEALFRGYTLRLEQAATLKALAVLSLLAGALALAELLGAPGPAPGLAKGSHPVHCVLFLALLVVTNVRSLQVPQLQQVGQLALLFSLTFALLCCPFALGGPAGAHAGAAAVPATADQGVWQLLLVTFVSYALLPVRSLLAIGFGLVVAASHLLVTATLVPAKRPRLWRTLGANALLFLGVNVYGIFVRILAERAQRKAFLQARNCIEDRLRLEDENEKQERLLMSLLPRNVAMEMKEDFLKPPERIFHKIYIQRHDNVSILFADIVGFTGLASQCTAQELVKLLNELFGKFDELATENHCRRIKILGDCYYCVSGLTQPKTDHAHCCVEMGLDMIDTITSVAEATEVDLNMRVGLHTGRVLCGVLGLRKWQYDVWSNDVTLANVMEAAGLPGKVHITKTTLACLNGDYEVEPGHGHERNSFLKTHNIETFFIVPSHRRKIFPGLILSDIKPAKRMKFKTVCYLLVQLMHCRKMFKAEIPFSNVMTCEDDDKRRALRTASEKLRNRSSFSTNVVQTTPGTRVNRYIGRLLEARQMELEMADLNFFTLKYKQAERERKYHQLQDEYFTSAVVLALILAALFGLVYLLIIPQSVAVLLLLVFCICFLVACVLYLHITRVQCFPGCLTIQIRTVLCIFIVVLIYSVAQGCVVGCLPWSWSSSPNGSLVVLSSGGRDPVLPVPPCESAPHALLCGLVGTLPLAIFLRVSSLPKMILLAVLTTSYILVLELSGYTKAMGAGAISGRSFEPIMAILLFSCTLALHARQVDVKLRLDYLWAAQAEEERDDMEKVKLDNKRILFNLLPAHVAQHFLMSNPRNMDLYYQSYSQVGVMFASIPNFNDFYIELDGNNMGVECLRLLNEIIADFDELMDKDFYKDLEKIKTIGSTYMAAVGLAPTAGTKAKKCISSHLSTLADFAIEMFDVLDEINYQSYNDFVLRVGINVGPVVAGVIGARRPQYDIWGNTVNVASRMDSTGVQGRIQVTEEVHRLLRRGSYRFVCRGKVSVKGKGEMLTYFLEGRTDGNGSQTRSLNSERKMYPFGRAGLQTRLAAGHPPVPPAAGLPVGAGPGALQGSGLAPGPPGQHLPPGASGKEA
T1 sequence (Q00722 whole entry): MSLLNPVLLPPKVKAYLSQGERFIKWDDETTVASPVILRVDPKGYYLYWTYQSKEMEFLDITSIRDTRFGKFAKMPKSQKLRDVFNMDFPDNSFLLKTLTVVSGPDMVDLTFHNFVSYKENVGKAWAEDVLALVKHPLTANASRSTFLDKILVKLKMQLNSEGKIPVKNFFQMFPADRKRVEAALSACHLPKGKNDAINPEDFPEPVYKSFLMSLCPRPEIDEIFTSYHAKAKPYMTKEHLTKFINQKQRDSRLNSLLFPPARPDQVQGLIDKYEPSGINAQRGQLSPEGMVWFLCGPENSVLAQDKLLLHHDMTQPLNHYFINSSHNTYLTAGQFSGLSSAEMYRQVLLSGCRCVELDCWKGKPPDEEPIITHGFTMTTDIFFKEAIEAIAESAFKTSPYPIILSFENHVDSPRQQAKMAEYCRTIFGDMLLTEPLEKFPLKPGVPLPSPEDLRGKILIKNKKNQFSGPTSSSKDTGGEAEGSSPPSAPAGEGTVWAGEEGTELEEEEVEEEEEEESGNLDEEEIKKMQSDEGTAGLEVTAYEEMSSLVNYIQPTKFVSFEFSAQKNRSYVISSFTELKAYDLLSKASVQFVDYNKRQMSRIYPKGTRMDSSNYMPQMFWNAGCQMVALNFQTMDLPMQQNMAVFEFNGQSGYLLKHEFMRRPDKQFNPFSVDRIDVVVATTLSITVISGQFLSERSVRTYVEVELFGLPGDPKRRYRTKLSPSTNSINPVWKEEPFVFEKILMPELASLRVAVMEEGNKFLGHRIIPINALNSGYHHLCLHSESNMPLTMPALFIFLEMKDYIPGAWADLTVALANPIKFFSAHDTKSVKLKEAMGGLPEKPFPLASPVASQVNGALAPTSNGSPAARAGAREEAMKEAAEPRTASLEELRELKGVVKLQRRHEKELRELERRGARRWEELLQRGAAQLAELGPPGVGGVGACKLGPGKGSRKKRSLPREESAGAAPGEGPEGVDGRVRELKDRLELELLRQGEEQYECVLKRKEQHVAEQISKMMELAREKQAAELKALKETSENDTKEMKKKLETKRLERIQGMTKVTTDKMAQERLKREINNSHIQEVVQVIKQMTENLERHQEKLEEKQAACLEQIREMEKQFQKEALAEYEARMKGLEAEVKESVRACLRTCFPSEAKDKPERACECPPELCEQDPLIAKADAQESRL
T2 sequence (P26769 whole entry): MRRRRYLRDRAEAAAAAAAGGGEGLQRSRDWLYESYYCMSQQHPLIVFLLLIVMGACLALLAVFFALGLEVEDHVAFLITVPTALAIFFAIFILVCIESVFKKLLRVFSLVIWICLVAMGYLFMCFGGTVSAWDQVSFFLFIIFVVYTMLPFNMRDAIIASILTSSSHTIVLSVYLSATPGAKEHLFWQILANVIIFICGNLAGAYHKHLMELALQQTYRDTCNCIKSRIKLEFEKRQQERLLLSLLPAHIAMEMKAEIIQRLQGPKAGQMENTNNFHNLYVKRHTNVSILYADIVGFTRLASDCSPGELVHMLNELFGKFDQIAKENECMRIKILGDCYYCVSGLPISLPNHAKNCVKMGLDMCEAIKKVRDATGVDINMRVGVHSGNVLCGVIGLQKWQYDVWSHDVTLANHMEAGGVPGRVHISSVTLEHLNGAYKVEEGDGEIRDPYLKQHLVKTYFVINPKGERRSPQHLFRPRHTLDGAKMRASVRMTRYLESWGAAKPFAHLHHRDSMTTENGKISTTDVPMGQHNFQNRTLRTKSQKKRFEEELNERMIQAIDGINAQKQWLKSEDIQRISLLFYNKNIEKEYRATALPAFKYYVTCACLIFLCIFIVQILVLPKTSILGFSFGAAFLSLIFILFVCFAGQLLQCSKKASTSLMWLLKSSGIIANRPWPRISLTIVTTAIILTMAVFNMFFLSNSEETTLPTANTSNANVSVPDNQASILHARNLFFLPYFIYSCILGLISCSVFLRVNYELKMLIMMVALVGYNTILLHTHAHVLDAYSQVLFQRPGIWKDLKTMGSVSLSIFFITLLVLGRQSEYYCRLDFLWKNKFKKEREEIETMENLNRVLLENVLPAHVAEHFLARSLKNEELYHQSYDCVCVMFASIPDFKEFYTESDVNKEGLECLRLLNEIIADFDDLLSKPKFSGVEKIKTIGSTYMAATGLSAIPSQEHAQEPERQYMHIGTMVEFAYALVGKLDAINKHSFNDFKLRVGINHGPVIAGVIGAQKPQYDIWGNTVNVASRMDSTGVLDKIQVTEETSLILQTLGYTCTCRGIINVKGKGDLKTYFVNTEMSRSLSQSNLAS
T4 sequence (Q00722 whole entry): as the sequence (Q00722 whole entry) above

| Substance | stimulation of PLC-β2 activity by peptide itself (in words) [1] | affinity of PLC-β2 stimulation compared with parent or comparator peptide (in words) [1] | also measured |
| --- | --- | --- | --- |
| Gβ89-101: thirteen amino acid peptide encoding Gβ residues 89-101 (SEQ ID NO:7) (KVHAIPLRSSWVM; listed as Homo sapiens) | did stimulate | – | – |
| H91A: Gβ86-105 peptide with H91A substitution (TTNKVAAIPLRSSWVMTCAY) | – | decreased the affinity | maximal stimulation / efficacy on PLC-β2 (in words) [1]: did not affect maximal stimulation |
| K89A: Gβ86-105 peptide with K89A substitution (TTNAVHAIPLRSSWVMTCAY) | – | decreased the affinity | maximal stimulation / efficacy on PLC-β2 (in words) [1]: did not affect maximal stimulation |
| R96A: Gβ86-105 peptide with R96A substitution (TTNKVHAIPLASSWVMTCAY) | – | decreased the affinity; also recorded: large shift in affinity | maximal stimulation / efficacy on PLC-β2 (in words) [1]: did not affect maximal stimulation |
| S97,98R Gβ86-105 peptide: Gβ86-105 peptide with both serines 97 and 98 substituted with arginine (TTNKVHAIPLRRRWVMTCAY) | – | – | increase in affinity of PLC-β2 stimulation versus Gβ86-105 peptide ([1]; substituted Gβ86-105 peptides): five-fold increase |
| S97, 98C: Gβ86-105 peptide with serines 97 and 98 substituted with cysteine (TTNKVHAIPLRCCWVMTCAY) | – | greatly reduced affinity | – |
| S97, 98D Gβ96-101: six amino acid Gβ96-101 peptide with serines 97 and 98 substituted with Asp (RDDWVM) | did not stimulate | – | – |
| S97, 98D: Gβ86-105 peptide with serines 97 and 98 substituted (D per FIG. 7C legend; text says asparagine) (TTNKVHAIPLRDDWVMTCAY; not fully specified) | inactive | – | – |
| S97R substituted peptide: six amino acid Gβ96-101 peptide with arginine at position 97 (SEQ ID NO:10) (RRSWVM; listed as Homo sapiens) | – | increase affinity; also recorded: higher affinity | – |
| S98R Gβ96-101: six amino acid Gβ96-101 peptide with arginine substituted at position 98 (RSRWVM; UniProt P62873 96-101, looked up, variant S98R) | – | increase affinity | – |
| m-GGL: Gβ115-135 peptide with Tyr-124 converted to Val (GGLDNICSIVNLKTREGNVRV) | – | – | inhibition of Gβγ-stimulated AC2 activity [2]: less effective; inhibition of Ca2+/CaM-stimulated AC1 activity by peptide alone (in words) [3]: did not inhibit the AC1 activity as extensively; blockade of Gβγ inhibition of Ca2+/CaM-stimulated AC1 [3]: no effect; effect on Gβγ stimulation of PLC-β2 (in words) [1]: inactive |

Continued, in another order:

| stimulation of PLC-β2 activity by peptide itself (in words) [1] | affinity of PLC-β2 stimulation compared with parent or comparator peptide (in words) [1] | Substance | also measured |
| --- | --- | --- | --- |
| no measurable effects | – | FLLT: unrelated peptide encoding region 660-688 of adenylyl cyclase 6, same overall charge as Gβ86-105 (KYSRKVDPRFGAYVACALLVFCFICFIQL; UniProt O43306 660-688, looked up, fragment) [reference compound] | – |
| did not stimulate | – | Gβ96-98: three amino acid peptide encoding Gβ residues 96-98 (RSS) | – |
| did stimulate | considerably lower affinity | Gβ96-101: six amino acid peptide encoding Gβ residues 96-101 (SEQ ID NO:8) (RSSWVM; listed as Homo sapiens) | – |
| did not stimulate | – | K89A, H91A, and R96A triple substituted peptide: Gβ86-105 peptide with K89, H91 and R96 substituted simultaneously (TTNAVAAIPLASSWVMTCAY; UniProt P62873 86-105, looked up, variant K89A H91A R96A) | effect on Gβγ stimulation of PLC-β2 (in words) [1]: did not affect |
| not capable of activating | – | m-TTN: Gβ86-105 peptide with Met-101 substituted by Asn (TTNKVHAIPLRSSWVNTCAY) | inhibition of Gβγ-stimulated AC2 activity [2]: much less efficacious; inhibition of Ca2+/CaM-stimulated AC1 activity by peptide alone (in words) [3]: greatly reduced capacity to inhibit; blockade of Gβγ inhibition of Ca2+/CaM-stimulated AC1 [3]: did not affect; binding to PLC-β2 (in words) [4]: did not display measurable binding |
